From patent publication US20130183348A1, “Inhibitor of HMGB Protein-Mediated Immune Response Activation, and Screening Method” (JAPAN SCIENCE AND TECHNOLOGY AGENCY, published 2013)

What was measured:
[1] = biological target: T1, HMGB1 (Mus musculus, UniProt P63158 SEQ:1-215); experiment: pulldown; biotin-CpG-B(S) 0.2 uM pulled down HMGB1; also completely inhibited B-DNA binding; details: tags: GST-tagged, tag removed with thrombin (pGEX4T3)
Protocol: (§1) In more detail, a final concentration of 0, 0.1, 0.5, 2.5, 12.5, or 62.5 μg/mL of CpG-B(S) as a competitor was added to 2 μg of a recombinant HMGB1 protein and a final concentration of 2.5 μg/mL of biotin-labeled B-DNA, and they were incubated (room temperature, 30 minutes). The biotin-labeled B-DNA was pulled down with streptavidin-bound magnetic beads, and HMGB1 in the coprecipitated protein was detected by Western blotting using an anti-HMGB1 antibody. In addition, a final concentration of 0, 1, 2, 4, 8, 16, or 32 μM of a competitor: CpG-B(S) not labeled with biotin, CpG-M(S), ODN(PS) composed of only a phosphorothioate backbone and not having any base, or ODN(CpG-M) having the same sequence as that of CpG-M(S) and a phosphodiester backbone, was added to 2 μg of the recombinant HMGB1 protein and a final concentration of 0.2 μM of biotin-labeled CpG-B(S). The biotin-labeled CpG-B was pulled down with streptavidin-bound magnetic beads, and HMGB1 in the coprecipitated protein was detected by Western blotting using an anti-HMGB1 antibody.

[2] = biological target: T1, HMGB1; experiment: pulldown; CpG-B ODN competing biotin-B-DNA; recombinant HMGB1 or 2 used, protein of this panel not specified; details: tags: GST-tagged, tag removed with thrombin (pGEX4T3)
Protocol: (§2) In vitro pull-down assay was carried out as follows. At first, a recombinant of HMGB1, 2, or 3 was treated in the presence or absence of a competitor at room temperature for 30 minutes. The supernatant was mixed with a biotin-labeled B-DNA at 4° C. for 30 minutes, then streptavidin-bound magnetic beads (Invitrogen Corporation) were added thereto, and the mixture was incubated in a binding buffer (50 mM Tris-Cl, pH 7.5, 150 mM NaCl, 1 mM EDTA, 1% NP-40, 100 μg/mL leupeptin, 1 mM PMSF, 1 mM Na₃VO₄). Subsequently, the mixture was sufficiently washed with a binding buffer, was separated by SDS-PAGE, and then was immunoblotted using an anti-HMGB1, 2, or 3 antibody.
Binding of HMGB to DNA, RNA and base-free phosphorothioate deoxyribose homopolymer (PS) was investigated. In vitro pull-down assay using recombinant HMGB1 or 2 and biotin-bound B-DNA was performed in the presence of 1, 3, 10, 30 and 100 μg/mL of unlabeled nucleic acid (B-DNA, poly(I:C), poly(U), bovine thymus DNA, or microbial DNA), R837 (1, 3, 10, 30 and 100 μg/mL) (upper and middle panels), base-free natural deoxyribose homopolymer (PD: 0.01, 0.1, 0.3, 1 and 3 μg/mL, lower panel), or base-free phosphorothioate deoxyribose homopolymer (PS: 0.01, 0.1, 0.3, 1 and 3 μg/mL, lower panel). In the lower panel, unlabeled B-DNA or CpG-B ODN having stepwise increasing concentrations (0.1, 0.3, 1 and 3 μg/mL) was also used. […]

[3] = biological target: T1, HMGB1; experiment: competition; competes biotin-CpG-B(S) equally to unlabeled CpG-B(S); higher competitivity than PS; details: tags: GST-tagged, tag removed with thrombin (pGEX4T3)
Protocol: as §1

[4] = biological target: T2, CFP-tagged RIG-I (CFP-RIG-I) (mouse, UniProt Q6Q899 1-926); experiment: confocal fluorescence microscopy of HeLa cells cotransfected with CFP-RIG-I and YFP-HMGB1 and stimulated with poly(I:C); the filing's interpretation of co-localisation
T2 construct: Expressed in HeLa cells from the pCAGGS-CFP vector; not shown: CFP tag from the pCAGGS-CFP vector
T2 sequence (looked up): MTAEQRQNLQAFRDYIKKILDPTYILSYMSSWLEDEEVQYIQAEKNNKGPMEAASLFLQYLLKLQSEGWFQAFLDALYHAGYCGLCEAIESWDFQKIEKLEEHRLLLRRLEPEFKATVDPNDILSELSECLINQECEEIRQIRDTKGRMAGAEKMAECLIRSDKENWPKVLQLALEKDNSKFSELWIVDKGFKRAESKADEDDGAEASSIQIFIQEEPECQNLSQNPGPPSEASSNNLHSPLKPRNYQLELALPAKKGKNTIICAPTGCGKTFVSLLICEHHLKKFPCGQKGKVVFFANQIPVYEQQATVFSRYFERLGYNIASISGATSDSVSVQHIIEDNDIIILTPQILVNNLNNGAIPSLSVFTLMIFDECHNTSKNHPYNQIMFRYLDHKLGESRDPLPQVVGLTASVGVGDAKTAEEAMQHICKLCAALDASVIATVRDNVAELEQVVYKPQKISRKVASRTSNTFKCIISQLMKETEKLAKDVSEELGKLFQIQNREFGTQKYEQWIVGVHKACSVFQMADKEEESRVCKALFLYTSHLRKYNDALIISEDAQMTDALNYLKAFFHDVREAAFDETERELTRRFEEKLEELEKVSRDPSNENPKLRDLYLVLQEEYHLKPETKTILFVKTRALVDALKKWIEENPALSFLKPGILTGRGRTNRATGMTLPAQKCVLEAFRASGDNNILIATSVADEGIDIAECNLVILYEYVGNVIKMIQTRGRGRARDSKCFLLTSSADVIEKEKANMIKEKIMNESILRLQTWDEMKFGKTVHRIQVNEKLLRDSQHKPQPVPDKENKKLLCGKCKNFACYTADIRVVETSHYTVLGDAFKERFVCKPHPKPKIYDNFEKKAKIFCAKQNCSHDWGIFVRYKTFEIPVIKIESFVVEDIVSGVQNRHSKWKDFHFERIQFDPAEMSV
Protocol: Intracellular localization of HMGB1 and RIG-I was investigated. Expression vectors of CFP-tagged RIG-I (CFP-RIG-I) and YFP-tagged HMGB1 (YFP-HMGB1) were introduced, together with RFP-tagged Rab5 (RFP-Rab5) or without RFP-Rab5, into HeLa cells. At 16 hours after the gene transfer, the cells were stimulated with poly(I:C) for 2 hours, and fluorescence microscopic observation was performed using a laser scanning confocal microscope.

[5] = biological target: T1, HMGB1; experiment: competition; competes biotin-B-DNA; higher competitivity than PS; details: tags: GST-tagged, tag removed with thrombin (pGEX4T3)
Protocol: as §2
As in Example 13, in vitro pull-down assay using recombinant HMGB1 and biotin-bound B-DNA was performed for 0.1, 0.5, 2.5, 12.5 and 62.5 μg/mL of CpG-B(S), CpG-Rev(S), CpG-M(S) and PS, as competitors.

B1: CpG-B(S) (ssDNA)
DNA: TCCATGACGTTCCTGATGCT
modifications: PS all linkages
binding result [1]: binds | binding result [2]: binds

B2: CpG-M(S) (ssDNA)
DNA: TCCATGAGGTTCCTGATGCT
modifications: PS all linkages
binding result [3]: binds

B3: YFP-tagged HMGB1 (YFP-HMGB1) (other, mouse, UniProt P63158 1-215, looked up)
chain: MGKGDPKKPRGKMSSYAFFVQTCREEHKKKHPDASVNFSEFSKKCSERWKTMSAKEKGKFEDMAKADKARYEREMKTYIPPKGETKKKFKDPNAPKRPPSAFFLFCSEYRPKIKGEHPGLSIGDVAKKLGEMWNNTAADDKQPYEKKAAKLKEKYEKDIAAYRAKGKPDAAKKGVVKAEKSKKKKEEEDDEEDEEDEEEEEEEEDEDEEEDDDDE
notes: Expressed in HeLa cells from the pCAGGS-YFP vector; not shown: YFP tag from the pCAGGS-YFP vector
binding result [4]: binds

B4: CpG-Rev(S) (ssDNA)
DNA: TCCATGAGCTTCCTGATGCT
modifications: PS all linkages
binding result [5]: binds
